Laboratory results published in US20030199671A1 (published 2003).
Positions of bridges follow the written chain, without caps; N, C: chain ends.

Experiments:
[1] = target: T1, human IgG1 (human, UniProt P01857-1 1-330 = IgG part); test: fluorescence anisotropy; pH 5.7, 0 M NaCl
T1 construct: Calbiochem; human plasma IgG1 in anisotropy studies, myeloma-derived (cat. 400120) in batch/column studies; also called hIgG1
Protocol: (§1) All measurements were performed in 384 well microplates with 20 nM fluorescein-labeled peptide and various concentrations of the IgG isoform in a volume of between 10 and 20 μl using a Tecan Polarion fluorescence polarization plate reader. All binding buffers included 0.01% (v/v) Tween 20 to prevent peptide adsorption to the microplate. The binding mixture was equilibrated for 10 minutes in the microplate at 30° C. prior to performing the measurement.

[2] = target: T2, human IgG2 (human, UniProt P01859-1 1-326 = IgG part); test: fluorescence anisotropy; pH 5.7, 0.01 M Tris-acetate
T2 construct: Calbiochem; plasma IgG2 in anisotropy studies, myeloma-derived (cat. 400122) in batch/column studies; also called hIgG2
T2 sequence (P01859 other isoform, or with tags, fused parts or gaps): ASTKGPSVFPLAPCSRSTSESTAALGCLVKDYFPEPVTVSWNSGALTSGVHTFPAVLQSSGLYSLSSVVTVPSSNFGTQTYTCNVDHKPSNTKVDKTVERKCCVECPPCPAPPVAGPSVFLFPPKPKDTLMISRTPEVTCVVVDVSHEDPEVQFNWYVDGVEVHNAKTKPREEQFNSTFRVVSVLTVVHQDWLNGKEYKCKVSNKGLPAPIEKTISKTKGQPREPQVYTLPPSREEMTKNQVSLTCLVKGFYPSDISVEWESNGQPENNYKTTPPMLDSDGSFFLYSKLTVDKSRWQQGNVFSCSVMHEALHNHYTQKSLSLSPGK
Protocol: as §1

[3] = target: T1, human IgG1; test: as above
Protocol: as §1

[4] = target: T3, human IgG4 (human, UniProt P01861-1 1-327 = IgG part); test: as above
T3 construct: Calbiochem; plasma IgG4 in anisotropy studies, myeloma-derived (cat. 400126) in batch/column studies; also called hIgG4
T3 sequence (P01861 other isoform, or with tags, fused parts or gaps): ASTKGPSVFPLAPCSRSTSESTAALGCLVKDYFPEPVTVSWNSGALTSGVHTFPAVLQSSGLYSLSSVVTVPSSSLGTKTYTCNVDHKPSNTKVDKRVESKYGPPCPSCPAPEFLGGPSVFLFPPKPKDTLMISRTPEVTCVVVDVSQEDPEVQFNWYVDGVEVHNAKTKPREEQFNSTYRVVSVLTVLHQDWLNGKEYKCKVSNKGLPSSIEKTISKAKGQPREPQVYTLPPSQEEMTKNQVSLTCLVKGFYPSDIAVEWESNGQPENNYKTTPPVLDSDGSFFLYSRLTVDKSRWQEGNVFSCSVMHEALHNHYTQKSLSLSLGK
Protocol: as §1

[5] = target: T4, human IgG (unfractionated, polyclonal); test: filterplate; 25 mg human IgG applied per ml resin
T4 construct: also called hIgG; polyclonal human IgG
Protocol: After incubation of the samples, with shaking, at room temperature for one hour, the supernatant liquid from each well, containing unbound IgG, was collected by centrifugation into the cognate well of a collection plate. The assay plate was washed three times with PBST (200 μl/wash) and bound IgG was eluted from the media samples by incubation for 30-60 minutes at room temperature in 100 μl Elution Buffer (100 mM CAPS, pH 11.5). Eluates were collected by centrifugation for analysis. Protein concentrations were determined from A₂₈₀ measurements and plotted as a function of mg human IgG bound per ml resin vs. mg human IgG applied per ml resin.
These were subsequently tested in batch filterplate format for relative static capacity, human IgG subtype and species specificity as previously described. In addition, total dynamic capacities were determined for comparison. […] The static capacity (mg IgG bound per ml resin) was measured at the 2.5 mg/ml target concentration (25 mg human IgG applied per ml resin).

[6] = target: T1, human IgG1; test: fluorescence anisotropy; pH 5.7, 0.05 M NaCl
Protocol: as §1

T1 sequence (P01857 other isoform, or with tags, fused parts or gaps): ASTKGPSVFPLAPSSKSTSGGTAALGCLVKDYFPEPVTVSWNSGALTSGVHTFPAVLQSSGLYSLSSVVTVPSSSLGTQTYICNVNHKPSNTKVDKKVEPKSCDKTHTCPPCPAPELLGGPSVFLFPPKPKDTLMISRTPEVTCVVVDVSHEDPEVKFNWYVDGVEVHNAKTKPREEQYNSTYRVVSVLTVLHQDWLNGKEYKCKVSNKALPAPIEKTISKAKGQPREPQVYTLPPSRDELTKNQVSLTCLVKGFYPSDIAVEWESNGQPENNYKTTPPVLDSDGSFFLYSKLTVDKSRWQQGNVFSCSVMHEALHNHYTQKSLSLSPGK

Kd [1]: 74 nM
Kd [2]: 68 nM
Kd [3]: 74 nM
Kd [4]: 300 nM
Static Cap. [5]: 24 mg/mL
Kd [6]: 300 nM
Binder: Ac-GDDHMCVYTTWGELIWCDNHEPGPEGGGK-NH2 (disulfide 6-17 (inferred), Synthetic disulfide-cyclised peptide) [DX249]
